{"source": "paper PMC2726620", "about": "(Journal of medicinal chemistry, 2008)", "origin": "cited, not measured here", "key": {"mR1 dimer": {"biological_target": "mR1 dimer", "details": "read-out: Ki for mR1 dimer; from directed minilibrary screening studies"}, "ScRR": {"biological_target": "T1, ScRR (Saccharomyces cerevisiae, UniProt P21524)", "T1 sequence (P21524 1-888)": "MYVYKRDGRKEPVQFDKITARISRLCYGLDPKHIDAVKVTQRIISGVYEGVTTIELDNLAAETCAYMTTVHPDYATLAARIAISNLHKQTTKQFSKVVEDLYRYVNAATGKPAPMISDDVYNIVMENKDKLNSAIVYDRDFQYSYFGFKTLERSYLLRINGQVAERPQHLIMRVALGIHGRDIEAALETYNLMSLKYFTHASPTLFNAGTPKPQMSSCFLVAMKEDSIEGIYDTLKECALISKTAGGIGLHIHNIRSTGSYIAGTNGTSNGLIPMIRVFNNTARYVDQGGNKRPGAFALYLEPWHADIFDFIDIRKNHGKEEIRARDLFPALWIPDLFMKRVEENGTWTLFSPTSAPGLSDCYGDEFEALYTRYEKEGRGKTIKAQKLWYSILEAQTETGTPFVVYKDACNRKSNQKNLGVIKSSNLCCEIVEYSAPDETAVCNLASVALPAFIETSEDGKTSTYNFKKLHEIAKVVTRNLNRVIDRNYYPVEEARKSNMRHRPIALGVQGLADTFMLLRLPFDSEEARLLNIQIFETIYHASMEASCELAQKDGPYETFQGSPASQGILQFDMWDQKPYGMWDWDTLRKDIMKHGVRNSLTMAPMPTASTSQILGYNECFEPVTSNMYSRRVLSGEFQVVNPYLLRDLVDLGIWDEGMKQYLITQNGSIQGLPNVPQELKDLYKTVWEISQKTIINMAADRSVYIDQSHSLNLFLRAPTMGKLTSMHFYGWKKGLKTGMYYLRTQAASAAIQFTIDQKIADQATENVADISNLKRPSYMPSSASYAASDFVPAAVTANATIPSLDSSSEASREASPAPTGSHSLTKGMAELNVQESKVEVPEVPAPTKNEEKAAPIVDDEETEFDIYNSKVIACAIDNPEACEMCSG", "details": "read-out: IC50, ScRR; footnote *: IC50 values were reported in [30]"}, "[1]": {"biological_target": "EcR2 octapeptide C-terminal octapeptide (Escherichia coli) (UniProt P69924)", "sequence (P69924 whole entry, looked up)": "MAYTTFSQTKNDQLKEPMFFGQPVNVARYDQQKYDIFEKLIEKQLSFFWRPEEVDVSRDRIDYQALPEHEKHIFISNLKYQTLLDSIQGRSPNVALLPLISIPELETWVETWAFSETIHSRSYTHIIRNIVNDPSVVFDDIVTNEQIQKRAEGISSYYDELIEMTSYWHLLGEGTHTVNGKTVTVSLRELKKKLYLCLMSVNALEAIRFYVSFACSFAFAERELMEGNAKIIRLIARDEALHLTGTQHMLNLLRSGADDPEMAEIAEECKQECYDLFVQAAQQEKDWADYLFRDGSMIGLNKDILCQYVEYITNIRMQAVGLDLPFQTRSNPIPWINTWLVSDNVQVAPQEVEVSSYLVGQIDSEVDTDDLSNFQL"}, "[2]": {"biological_target": "EcR2 20-mer peptide C-terminal 20-mer (Escherichia coli) (UniProt P69924)", "sequence (P69924 357-376)": "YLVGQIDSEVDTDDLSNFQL"}}, "note": "Non-standard residues stand in square brackets, D forms with d. Residues, ends and D or L forms follow the SMILES beside them. No end group written: not given here. *: point of attachment. Fmoc = O=C(OCC1c2ccccc2-c2ccccc21)*; NMePhg = CN[C@H](C(=O)O)c1ccccc1; Cha = N[C@@H](CC1CCCCC1)C(=O)O", "data": [{"compound": "CC(C)C[C@H](NC(=O)[C@H](c1ccccc1)N(C)C(=O)OCC1c2ccccc2-c2ccccc21)C(=O)N[C@@H](CC(=O)O)C(=O)N[C@@H](CC1CCCCC1)C(=O)N[C@@H](CC(=O)O)C(=O)N[C@@H](Cc1ccccc1)C(=O)O", "note": "[P6, ^1Fmoc(Me)PhgLDChaDF^7] (Fmoc-[NMePhg]LD[Cha]DF-OH; C-terminus assumed)", "values": [{"measurement": "Ki", "setting": "mR1 dimer", "result": 0.31, "unit": "µM"}]}, {"compound": "^1FTFNEDF^7 (not fully specified; printed as 1FTFNEDF7) [ScR2]", "values": [{"measurement": "IC50", "setting": "ScRR", "result": 44, "unit": "µM"}]}, {"compound": "^2NFDDDF^7 (not fully specified; printed as 2NFDDDF7) [ScR4]", "values": [{"measurement": "IC50", "setting": "ScRR", "result": 30, "unit": "µM"}]}, {"compound": "ribonucleotide reductase R1 (EcR1) (from UniProt P00452)", "values": [{"measurement": "Ki", "setting": "[1]", "result": 370, "unit": "µM"}, {"measurement": "Ki", "setting": "[2]", "result": 20, "unit": "µM"}]}]}
